In article PMC2873776 one finds stoichiometry N, Kd and stoichiometry N (Tm14 dimer per CheA:CheW dimer) data, which are given here for three substances.

A word on the stoichiometry N: it is the number of molecules, sites or subunits per partner or assembly. Usually Kd stands for a measure of binding affinity in units of concentration.

The target in assay [1] is CheAΔ289 (290–671) (T. maritima) (UniProt Q56310). Briefly: pulsed dipolar ESR spectroscopy.
Assay [2] deals with CheA (Thermotoga maritima) (UniProt Q56310). Particulars: cited from earlier work.
Assay [3] addresses CheA:CheW complex (CheAΔ289 dimer with one CheW bound to each subunit) (T. maritima) (UniProt Q56310). Briefly: pulsed dipolar ESR spectroscopy.

CheA (Thermotoga maritima), sequence (Q56310 whole entry): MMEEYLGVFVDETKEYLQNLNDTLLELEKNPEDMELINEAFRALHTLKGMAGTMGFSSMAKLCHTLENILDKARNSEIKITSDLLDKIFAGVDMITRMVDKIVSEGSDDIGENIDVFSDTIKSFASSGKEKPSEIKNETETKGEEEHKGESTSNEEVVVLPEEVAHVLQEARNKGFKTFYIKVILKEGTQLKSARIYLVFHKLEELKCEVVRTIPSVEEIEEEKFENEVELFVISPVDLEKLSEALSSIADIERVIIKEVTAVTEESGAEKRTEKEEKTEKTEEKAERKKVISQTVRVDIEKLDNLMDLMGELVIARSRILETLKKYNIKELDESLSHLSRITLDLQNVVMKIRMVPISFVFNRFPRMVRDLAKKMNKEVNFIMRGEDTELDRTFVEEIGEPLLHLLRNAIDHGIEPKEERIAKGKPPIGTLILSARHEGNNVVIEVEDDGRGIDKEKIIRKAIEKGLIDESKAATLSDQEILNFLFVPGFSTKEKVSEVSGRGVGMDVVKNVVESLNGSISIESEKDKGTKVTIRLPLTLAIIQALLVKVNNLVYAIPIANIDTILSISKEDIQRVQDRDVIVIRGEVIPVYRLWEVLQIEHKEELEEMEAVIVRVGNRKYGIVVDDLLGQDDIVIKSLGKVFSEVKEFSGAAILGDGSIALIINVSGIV
CheW, sequence (Q56311 whole entry): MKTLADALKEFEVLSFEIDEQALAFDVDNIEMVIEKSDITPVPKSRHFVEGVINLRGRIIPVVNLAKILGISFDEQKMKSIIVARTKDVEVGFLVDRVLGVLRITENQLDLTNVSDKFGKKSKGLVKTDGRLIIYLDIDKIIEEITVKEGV

For “CheAΔ289 (290–671) (from UniProt Q56310 290-671) (domain or fragment)”, in assay [1], the stoichiometry N was determined as 4.

Consider CheW (from UniProt Q56311), for which, in assay [2], the Kd is 100 nM.

In assay [3], “Tm14C (Tm14: residues 40–213) (domain or fragment)” gave a stoichiometry N (Tm14 dimer per CheA:CheW dimer) of 1.
